Results taken from article PMC10349882, “High resolution structures define divergent and convergent mechanisms of archaeal proteasome activation” (Communications Biology, 2023).
Positions count from the first letter of the chain named. In names and notes the source's numbering stands.

B1: T20S α subunit, wild type (natural protein, Thermoplasma acidophilum)
chain: MQQGQMAYDRAITVFSPDGRLFQVEYAREAVKKGSTALGMKFANGVLLISDKKVRSRLIEQNSIEKIQLIDDYVAAVTSGLVADARVLVDFARISAQQEKVTYGSLVNIENLVKRVADQMQQYTQYGGVRPYGVSLIFAGIDQIGPRLFDCDPAGTINEYKATAIGSGKDAVVSFLEREYKENLPEKEAVTLGIKALKSSLEEGEELKAPEIASITVGNKYRIYDQEEVKKFL
notes: Proteasome subunit alpha, Thermoplasma acidophilum; Subunit of m1, written alone for the subunit-subunit rows of the structures; also called proteasome α-subunit
B2: T20S β subunit (natural protein, Thermoplasma acidophilum, UniProt P28061 9-211, looked up)
chain: TTTVGITLKDAVIMATERRVTMENFIMHKNGKKLFQIDTYTGMTIAGLVGDAQVLVRYMKAELELYRLQRRVNMPIEAVATLLSNMLNQVKYMPYMVQLLVGGIDTAPHVFSIDAAGGSVEDIYASTGSGSPFVYGVLESQYSEKMTVDEGVDLVIRAISAAKQRDSASGGMIDVAVITRKDGYVQLPTDQIESRIRKLGLIL
notes: Proteasome subunit beta, Thermoplasma acidophilum; Subunit of m1, written alone for the subunit-subunit rows of the structures
B3: T20S α subunit L81Y (natural protein, Thermoplasma acidophilum)
chain: B1 chain with L81Y
notes: Proteasome subunit alpha, Thermoplasma acidophilum; α subunit of the mutant 20S whose cryo-EM structure is solved here; also called T20S-αL81Y; T20S L81Y

Legend:
[1] = target: the molecule itself; assay: cryo-EM structure; WT T20S, 0.5 mg/mL in 50 mM Tris pH 7.4, 150 mM NaCl; D7 symmetry; closed gate
[2] = target: B3; assay: cryo-EM structure; T20S-αL81Y, 0.5 mg/mL in 50 mM Tris pH 7.4, 150 mM NaCl; D7 symmetry; partially open gate; conditions: both partners purified
[3] = target: the molecule itself; assay: as above
[4] = target: B1; assay: cryo-EM structure; WT T20S, 0.5 mg/mL in 50 mM Tris pH 7.4, 150 mM NaCl; D7 symmetry; closed gate; conditions: both partners purified

Row | Binder | binding result [1] | binding result [2] | binding result [3] | binding result [4]
1 | B1 | binds | – | – | –
2 | B2 | – | binds | binds | binds
3 | B3 | – | – | binds | –
